Data from PMC8213127.

Assays:
[1] = molecular target: FlhA from the lateral flagella of Vibrio parahaemolyticus (Vibrio parahaemolyticus); test: cryo-EM structure; purified full-length protein at 0.8-1 mg/ml in TBS with 0.01% LMNG; single particle analysis in Relion; C9 symmetry imposed for Vp-FlhA, D9 for Ye-SctV; only the cytoplasmic domain resolved
[2] = molecular target: SctV from Yersinia enterocolitica (Yersinia enterocolitica); test: as above

Substance | stoichiometry N [1] | stoichiometry N [2]
FlhA from the lateral flagella of Vibrio parahaemolyticus (natural protein) | 9 | –
SctV from Yersinia enterocolitica (natural protein) | – | 9
